In patent US20250262210A1 (TRUSTEES OF COLUMBIA UNIVERSITY IN THE CITY OF NEW YORK, published 2025):

Key:
Experiment in all cases: IP/MS, LZTR1 R810W-FLAG, U87
TRRAP = TRRAP (human, UniProt Q9Y4A5 2-3859, limits assumed)
Method in brief: (§1)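 Extracted peptides in 3% acetonitrile/0.1% formic acid ran on a 50 cm C18 column into an Orbitrap Fusion, with MaxQuant identification and spectral counting.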

HELZ = HELZ (human, UniProt P42694 1-1942, limits assumed)
Method in brief: as §1

ALPK2 = ALPK2 (human, UniProt Q86TB3 1-2170)
Method in brief: as §1

MOCOS = biological target: T1, MOCOS (human, UniProt Q96EN8 1-888)
T1 sequence (looked up): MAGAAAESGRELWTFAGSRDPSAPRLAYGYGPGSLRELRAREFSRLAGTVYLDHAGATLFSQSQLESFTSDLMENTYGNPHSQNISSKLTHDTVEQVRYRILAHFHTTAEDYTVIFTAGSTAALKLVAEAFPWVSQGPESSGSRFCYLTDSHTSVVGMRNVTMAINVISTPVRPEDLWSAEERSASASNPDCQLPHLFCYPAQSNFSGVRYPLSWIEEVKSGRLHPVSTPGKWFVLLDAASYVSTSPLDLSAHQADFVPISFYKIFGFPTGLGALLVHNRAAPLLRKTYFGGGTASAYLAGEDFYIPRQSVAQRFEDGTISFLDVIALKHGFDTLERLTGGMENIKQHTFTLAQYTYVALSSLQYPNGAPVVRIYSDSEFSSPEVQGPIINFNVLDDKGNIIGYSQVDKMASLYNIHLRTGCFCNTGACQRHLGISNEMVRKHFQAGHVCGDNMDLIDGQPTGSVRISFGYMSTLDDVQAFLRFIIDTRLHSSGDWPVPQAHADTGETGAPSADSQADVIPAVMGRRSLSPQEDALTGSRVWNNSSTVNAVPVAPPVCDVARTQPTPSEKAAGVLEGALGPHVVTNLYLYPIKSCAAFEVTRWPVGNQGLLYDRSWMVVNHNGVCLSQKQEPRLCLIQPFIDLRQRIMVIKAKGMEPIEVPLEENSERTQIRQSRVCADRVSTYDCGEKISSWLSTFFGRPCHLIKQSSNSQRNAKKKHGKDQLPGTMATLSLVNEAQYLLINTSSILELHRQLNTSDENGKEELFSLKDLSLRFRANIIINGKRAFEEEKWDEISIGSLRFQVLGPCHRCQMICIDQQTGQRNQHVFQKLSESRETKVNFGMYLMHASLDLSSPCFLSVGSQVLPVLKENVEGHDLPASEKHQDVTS
Method in brief: as §1

VPS13A = VPS13A (human, UniProt Q96RL7 1-3174, limits assumed)
Chain of VPS13A (Q96RL7 whole entry): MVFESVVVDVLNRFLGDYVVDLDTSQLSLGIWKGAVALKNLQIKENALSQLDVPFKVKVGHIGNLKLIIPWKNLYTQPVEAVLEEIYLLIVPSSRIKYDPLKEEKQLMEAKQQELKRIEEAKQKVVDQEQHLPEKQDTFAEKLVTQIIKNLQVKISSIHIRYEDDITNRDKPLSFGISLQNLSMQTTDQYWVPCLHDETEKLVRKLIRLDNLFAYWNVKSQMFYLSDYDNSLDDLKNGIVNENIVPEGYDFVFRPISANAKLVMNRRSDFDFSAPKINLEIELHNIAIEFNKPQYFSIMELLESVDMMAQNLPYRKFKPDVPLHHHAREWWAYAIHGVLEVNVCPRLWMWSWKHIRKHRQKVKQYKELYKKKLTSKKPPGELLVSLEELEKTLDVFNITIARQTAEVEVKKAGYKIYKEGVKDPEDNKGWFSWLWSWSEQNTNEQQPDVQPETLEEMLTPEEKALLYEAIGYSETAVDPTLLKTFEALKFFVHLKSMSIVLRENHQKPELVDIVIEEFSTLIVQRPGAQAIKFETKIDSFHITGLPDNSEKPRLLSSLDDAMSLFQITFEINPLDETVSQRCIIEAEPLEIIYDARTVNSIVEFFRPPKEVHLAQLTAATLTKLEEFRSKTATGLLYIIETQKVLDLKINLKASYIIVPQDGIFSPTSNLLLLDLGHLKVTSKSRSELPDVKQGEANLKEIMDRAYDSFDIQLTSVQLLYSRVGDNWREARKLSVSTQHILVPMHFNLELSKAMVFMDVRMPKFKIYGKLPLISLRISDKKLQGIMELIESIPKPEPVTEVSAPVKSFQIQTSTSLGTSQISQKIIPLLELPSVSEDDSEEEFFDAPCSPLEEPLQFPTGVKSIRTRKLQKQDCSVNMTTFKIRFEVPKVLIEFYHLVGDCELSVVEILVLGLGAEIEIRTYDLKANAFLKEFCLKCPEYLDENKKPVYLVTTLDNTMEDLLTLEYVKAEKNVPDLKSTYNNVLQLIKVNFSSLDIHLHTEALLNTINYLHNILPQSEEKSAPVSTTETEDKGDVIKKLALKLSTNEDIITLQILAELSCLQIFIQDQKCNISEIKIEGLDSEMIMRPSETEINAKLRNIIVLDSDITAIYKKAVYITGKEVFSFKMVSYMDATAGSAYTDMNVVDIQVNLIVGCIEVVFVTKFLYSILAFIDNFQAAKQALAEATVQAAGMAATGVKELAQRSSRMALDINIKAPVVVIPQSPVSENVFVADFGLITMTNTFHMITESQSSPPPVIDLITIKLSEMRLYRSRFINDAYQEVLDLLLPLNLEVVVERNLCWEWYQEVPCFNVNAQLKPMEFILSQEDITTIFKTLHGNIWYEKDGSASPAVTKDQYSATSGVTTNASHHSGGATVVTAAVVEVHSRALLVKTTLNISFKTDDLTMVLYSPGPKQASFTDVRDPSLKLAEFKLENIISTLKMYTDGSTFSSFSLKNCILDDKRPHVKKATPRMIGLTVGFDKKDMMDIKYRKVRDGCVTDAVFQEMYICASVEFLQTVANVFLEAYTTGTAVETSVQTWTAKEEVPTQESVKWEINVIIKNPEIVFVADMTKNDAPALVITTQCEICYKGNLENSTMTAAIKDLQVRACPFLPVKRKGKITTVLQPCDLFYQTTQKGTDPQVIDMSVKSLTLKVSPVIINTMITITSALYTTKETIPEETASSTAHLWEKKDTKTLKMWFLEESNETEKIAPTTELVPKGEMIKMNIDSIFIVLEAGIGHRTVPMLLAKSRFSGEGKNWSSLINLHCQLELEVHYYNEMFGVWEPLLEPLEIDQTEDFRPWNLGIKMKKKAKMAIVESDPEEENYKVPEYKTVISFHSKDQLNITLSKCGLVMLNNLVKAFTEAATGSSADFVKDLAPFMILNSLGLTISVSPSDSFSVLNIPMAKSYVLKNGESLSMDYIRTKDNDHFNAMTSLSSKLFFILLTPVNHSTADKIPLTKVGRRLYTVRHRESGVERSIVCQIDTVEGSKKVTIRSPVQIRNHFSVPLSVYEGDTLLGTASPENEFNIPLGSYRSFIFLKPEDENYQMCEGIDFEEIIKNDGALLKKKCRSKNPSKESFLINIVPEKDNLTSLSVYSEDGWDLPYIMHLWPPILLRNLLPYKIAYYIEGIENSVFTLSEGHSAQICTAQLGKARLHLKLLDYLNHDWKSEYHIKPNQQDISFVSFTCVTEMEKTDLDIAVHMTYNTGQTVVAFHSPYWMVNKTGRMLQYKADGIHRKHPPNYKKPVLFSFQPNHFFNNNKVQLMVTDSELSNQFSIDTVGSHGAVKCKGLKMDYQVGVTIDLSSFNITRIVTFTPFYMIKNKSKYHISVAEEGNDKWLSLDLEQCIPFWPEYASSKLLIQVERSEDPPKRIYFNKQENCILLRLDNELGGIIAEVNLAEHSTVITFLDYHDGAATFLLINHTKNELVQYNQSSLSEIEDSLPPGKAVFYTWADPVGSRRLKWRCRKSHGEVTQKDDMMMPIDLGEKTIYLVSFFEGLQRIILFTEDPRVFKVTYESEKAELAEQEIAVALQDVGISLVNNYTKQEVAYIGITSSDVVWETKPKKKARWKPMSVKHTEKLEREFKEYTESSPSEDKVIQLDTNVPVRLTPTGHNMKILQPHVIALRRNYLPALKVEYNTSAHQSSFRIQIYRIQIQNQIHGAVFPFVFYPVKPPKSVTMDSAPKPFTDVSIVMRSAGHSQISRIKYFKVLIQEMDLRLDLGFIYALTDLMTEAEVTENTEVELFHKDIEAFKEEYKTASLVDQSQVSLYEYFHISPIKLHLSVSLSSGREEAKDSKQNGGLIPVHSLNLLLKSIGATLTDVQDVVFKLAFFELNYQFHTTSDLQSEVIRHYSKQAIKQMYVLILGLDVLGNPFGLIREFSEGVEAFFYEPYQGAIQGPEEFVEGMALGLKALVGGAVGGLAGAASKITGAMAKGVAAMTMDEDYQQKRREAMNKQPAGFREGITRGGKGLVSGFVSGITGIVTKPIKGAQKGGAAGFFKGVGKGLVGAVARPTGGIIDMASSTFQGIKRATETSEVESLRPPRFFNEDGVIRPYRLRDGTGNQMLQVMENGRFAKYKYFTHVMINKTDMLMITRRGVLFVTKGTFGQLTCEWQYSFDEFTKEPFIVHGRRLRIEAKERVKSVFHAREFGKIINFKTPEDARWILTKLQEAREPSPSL
Method in brief: as §1

Measured: binding result

Chain of HELZ (P42694 whole entry): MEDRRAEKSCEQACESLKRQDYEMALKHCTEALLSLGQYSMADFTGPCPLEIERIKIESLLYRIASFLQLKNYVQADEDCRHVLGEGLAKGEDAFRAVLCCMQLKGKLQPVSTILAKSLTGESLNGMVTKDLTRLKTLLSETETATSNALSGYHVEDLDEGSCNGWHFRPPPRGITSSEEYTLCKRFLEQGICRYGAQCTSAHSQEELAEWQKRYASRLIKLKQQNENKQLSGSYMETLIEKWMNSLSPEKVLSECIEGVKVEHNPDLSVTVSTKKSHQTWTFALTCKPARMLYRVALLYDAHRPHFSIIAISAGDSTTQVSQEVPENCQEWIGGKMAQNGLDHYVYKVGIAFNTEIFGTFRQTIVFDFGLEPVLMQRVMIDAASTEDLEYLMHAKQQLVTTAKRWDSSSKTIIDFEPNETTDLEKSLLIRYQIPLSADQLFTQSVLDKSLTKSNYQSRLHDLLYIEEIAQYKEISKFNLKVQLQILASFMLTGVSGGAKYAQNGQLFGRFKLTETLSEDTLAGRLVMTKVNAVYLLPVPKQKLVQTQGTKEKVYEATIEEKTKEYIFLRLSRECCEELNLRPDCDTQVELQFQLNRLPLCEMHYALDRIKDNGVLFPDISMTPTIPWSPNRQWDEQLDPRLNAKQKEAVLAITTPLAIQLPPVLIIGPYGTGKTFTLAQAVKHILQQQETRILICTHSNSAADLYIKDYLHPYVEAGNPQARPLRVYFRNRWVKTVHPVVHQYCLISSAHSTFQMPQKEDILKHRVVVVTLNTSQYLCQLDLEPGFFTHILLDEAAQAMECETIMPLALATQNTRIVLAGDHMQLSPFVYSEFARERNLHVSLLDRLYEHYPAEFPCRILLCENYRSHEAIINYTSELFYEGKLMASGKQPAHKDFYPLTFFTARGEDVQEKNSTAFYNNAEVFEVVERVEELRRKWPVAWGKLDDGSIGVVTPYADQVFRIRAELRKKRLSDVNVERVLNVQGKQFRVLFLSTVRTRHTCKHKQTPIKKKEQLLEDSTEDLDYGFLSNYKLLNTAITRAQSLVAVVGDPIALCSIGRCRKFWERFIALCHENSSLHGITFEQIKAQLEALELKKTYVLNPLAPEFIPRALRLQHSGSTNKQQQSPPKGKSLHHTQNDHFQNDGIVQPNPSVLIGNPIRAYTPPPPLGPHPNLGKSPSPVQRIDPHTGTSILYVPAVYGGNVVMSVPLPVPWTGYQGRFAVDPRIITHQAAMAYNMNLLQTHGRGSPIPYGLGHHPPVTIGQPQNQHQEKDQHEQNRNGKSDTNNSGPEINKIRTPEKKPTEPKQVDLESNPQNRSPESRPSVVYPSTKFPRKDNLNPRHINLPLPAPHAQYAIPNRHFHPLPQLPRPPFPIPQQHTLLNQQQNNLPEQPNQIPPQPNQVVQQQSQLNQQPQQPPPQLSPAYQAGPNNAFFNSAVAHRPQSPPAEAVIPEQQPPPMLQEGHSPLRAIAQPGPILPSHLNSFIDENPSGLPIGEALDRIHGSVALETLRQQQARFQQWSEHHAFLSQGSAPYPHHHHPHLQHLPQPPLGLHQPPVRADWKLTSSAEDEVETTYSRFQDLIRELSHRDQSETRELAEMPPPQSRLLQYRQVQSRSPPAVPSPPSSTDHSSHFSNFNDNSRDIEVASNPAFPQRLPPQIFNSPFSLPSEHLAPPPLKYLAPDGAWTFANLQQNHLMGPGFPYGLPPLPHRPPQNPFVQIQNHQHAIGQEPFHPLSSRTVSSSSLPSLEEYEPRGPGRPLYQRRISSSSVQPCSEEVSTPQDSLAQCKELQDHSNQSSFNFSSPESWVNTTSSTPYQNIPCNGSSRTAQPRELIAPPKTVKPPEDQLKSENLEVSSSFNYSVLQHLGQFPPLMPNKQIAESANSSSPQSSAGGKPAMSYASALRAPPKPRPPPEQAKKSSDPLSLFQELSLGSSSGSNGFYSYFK

B1: LZTR1 R810W-FLAG (other, human, UniProt Q8N653 1-840, looked up)
chain: MAGPGSTGGQIGAAALAGGARSKVAPSVDFDHSCSDSVEYLTLNFGPFETVHRWRRLPPCDEFVGARRSKHTVVAYKDAIYVFGGDNGKTMLNDLLRFDVKDCSWCRAFTTGTPPAPRYHHSAVVYGSSMFVFGGYTGDIYSNSNLKNKNDLFEYKFATGQWTEWKIEGRLPVARSAHGATVYSDKLWIFAGYDGNARLNDMWTIGLQDRELTCWEEVAQSGEIPPSCCNFPVAVCRDKMFVFSGQSGAKITNNLFQFEFKDKTWTRIPTEHLLRGSPPPPQRRYGHTMVAFDRHLYVFGGAADNTLPNELHCYDVDFQTWEVVQPSSDSEVGGAEVPERACASEEVPTLTYEERVGFKKSRDVFGLDFGTTSAKQPTQPASELPSGRLFHAAAVISDAMYIFGGTVDNNIRSGEMYRFQFSCYPKCTLHEDYGRLWESRQFCDVEFVLGEKEECVQGHVAIVTARSRWLRRKITQARERLAQKLEQEAAPVPREAPGVAAGGARPPLLHVAIREAEARPFEVLMQFLYTDKIKYPRKGHVEDVLLIMDVYKLALSFQLCRLEQLCRQYIEASVDLQNVLVVCESAARLQLSQLKEHCLNFVVKESHFNQVIMMKEFERLSSPLIVEIVRRKQQPPPRTPLDQPVDIGTSLIQDMKAYLEGAGAEFCDITLLLDGHPRPAHKAILAARSSYFEAMFRSFMPEDGQVNISIGEMVPSRQAFESMLRYIYYGEVNMPPEDSLYLFAAPYYYGFYNNRLQAYCKQNLEMNVTVQNVLQILEAADKTQALDMKRHCLHIIVHQFTKVSKLPTLWSLSQQLLLDIIDSLASHISDKQCAELGADI
notes: Stably expressed in U87 cells by lentivirus; also called LZTR1-FLAG-R810W; LZTR1 RW; not shown: FLAG tag
binds: all assays above
